Results as given in the DeepSol protein solubility set.

Experiment: soluble on expression in E. coli; label from the status in PepcDB or PDB records

Sequence	soluble on expression in E. coli
MGMVGFRRSRHRRLGAGCGRAGGCMSGVEVITFGCRLNTYESEVMRAEAEKAGLNNAVLVNTCAVTGEAVRQARQAIRRARRDNPHARIIVTGCAAQTEKQTFADMPEVDAVLGNEEKLKSASYRALPDFGVSAEEKLRVNDIMSIKATAPQMVKHIDGHVRAFIQVQNGCDHRCTFCIIPYGRGNSRSVPMGAVVDQARRLTESGYCEIVLTGVDATSYGADLPGEPSLGYLAKTLLKQVPDIIRLRLSSIDSIEADHHLMDLIADEPRFMPHLHLSLQHGDDMILKRMKRRHLRADAIRFCNEVRSLRPDIAFGADMIAGFPTETEEMLENAATLAEECGISSLHVFPYSPREGTPAVRMPQLDRALVKERAGRLRARGEALKQAHLQNMVGSVQTVLVENSGFAHTDNFTLVAAPDLAPRTLAQVAITGHNGKHLNMKLLAADAALEHHHHHH	not soluble
MGSDKIHHHHHHMKVAYLSSAYLAPVEYYSKLLNYDKIFIEQHDHYMKQTYRNRCTIAGPEGELALSIPIVKPEEPKCPMKDIRISDHGNWRHLHWNAIESAYNSTPFFEYYKDDFRPFYEKKYEFLTDFNEELCRLVCELIDIQPAIERTKEYKTDFAPNEIDFREAIHPKKDFHRTDPEFIPQPYYQVFEARYGFLPNLSIIDLLFNMGPESLLILQKTCADSQ	not soluble
MEQQIADLLDEQEELDLPQEQLEAAEGESEEESEEESSQGEKFPKTRAARIQRLVRDAAVSRNVKDLYGGECQACGLRLVGPDGRPYSEGAHIRPLGKPHCGPDVEPNVLCLCPNCHVRLDIGAIIIEDDWSIIVRAGELGGNVLSKLKRKKEHHVHLDYVRYHREWWLEKGDPSQELEHHHHHH	soluble
MNQSADAKPPKPDGRVTRSVTVRKLGPGANKEKQESDNSQKKKTVNAAAQKADTSSKRNSGNPQKPKKPKHEAIKVSTRRLSASSKPPPPAPQNVPKMNSFVGNGNTRMIMVQTTPQAKKLEAEMKLRMQNKGESPEASLLVLESRTPEPTVQQVLEELQNDVVNPKSSTTPEGYSFELRNLKTPEIPAMPTPLACSPAAARNSPVVKKIQNHVPNVTLVPSEPREPSLRKLHLGTLKLKFLAFPLTTGFKKLQKLQDPLARIKLATEKLKERRAQLDTQKKHTMFLPEAFIGPHFNETIASGFYALFNASHFQVHYNSEGKRLGSGTMCVLKNQMNGARDWFAGNTWRAVKMMYMRTRDAEKHKNSEVKLFVEKLPDWSTEQLEEKLRNEFKLSDFQLLYDYKGNNLRSAIVLLKYPDAINLCNSIRSNPTVFGKEWHPRVFEVLDVAVQPPIDK	not soluble
MSLGEVAPTLAAYDLQGEAVALEQWEGKLVYLNFWSVNCGGCLAEMATLNQLSQEYQDQAVVVAINTDPEQVEIAPVLAQHNINYPVIRDQLGITQERYQVIGTPTSFLIDRNGKVIEWHQGVRNEQELTALFKQKVSEKEGHHHHHH	not soluble
MSKVVPIASLTPYQSKWTICARVTNKSQIRTWSNSRGEGKLFSLELVDESGEIRATAFNEQVDKFFPLIEVNKVYYFSKGTLKIANKQFTAVKNDYEMTFNNETSVMPCEDDHHLPTVQFDFTGIDDLENKSKDSLVDIIGICKSYEDATKITVRSNNREVAKRNIYLMDTSGKVVTATLWGEDADKFDGSRQPVLAIKGARVSDFGGRSLSVLSSSTIIANPDIPEAYKLRGWFDAEGQALDGVSISDLKS	soluble
MKHWFNIALAALALSSATVQAATEVKVGMSGRYFPFTFVKQDELQGFEVDVWNEIGKRNDYKVEFVTANFSGLLGLLETGRIDTISNQITITDARKAKYLFSDPYVIDGAQITVRKGNEAIKGIDDLAGKTVAVNLGSNFEQLLRNHDKDGKINIKTYDTGIEHDVALGRADAFVMDRLSALELIEKTGLPLQLAGSPFETIENAWPFVNNEKGQQLQGEVNKALAAMRADGTLSQIALKWFGTDISQ	not soluble
MRRTTRYPVSGESSLWNVYKTVSFWKVMKNFIIIQIARYTPFLSVKNWLYRTFLRMKVGKKTSFALMVMPDIMFPEKITVGDNSIIGYNTTLLAHEYLIREYRLGEIVIGNEVMIGANTTILPGVRIGDGAIVSAGTLVHKDVPSGAFVGGNPMRVIYTKEQMEAREGSY	not soluble
MPASVTHVIFDFDGLLVDTESAYTEANMELLRKYGHVFTMDLKRRQMGKRHDESIRWLINELKIGDLVTPEEYSRQYDELLIEMFKRSPAMPGAEKLVRHLLHTGVPVALCTGSCSRTFPTKLDNHKDWVNMIKLQVLSGDDPEVKHGKPHPDPFLVTMKRFPQVPESADKVLVFEDSYNGVLSALDAGMQCVMVPERSIFDPDSDPEFKNRVTVILNSLEQFKPEDFGLPPY	not soluble
MGDVVEMTSELGFKYSILASGSTGNSFYLETPEKKILVDAGLSGKKITSLLAEIDRDPSDLDAILVTHEHKDHIHGVGVLARKYGMDIYANEKTWQIMDSKNMLGKVDNSQKHIFSRGKLLTFGDIDIESFGVSHDAINPQFYRFMKDGKSFVMLTDTGYVSDRMAGLIENADGYLIESNHDIEILRAGSYPWSTKQRILSDQGHLCNEDGADAMIRTIGNKTKKIYLGHLSKENNIKELAYMTMENQLARADFGVGTDFKIFVTSPDTATPLTDILEHHHHHH	not soluble
MKRLLKEKEGIRLEFKEARTALPGNLFETICSMLNHDGGDIVLGVSDDGTVAGVEHAKMETMVSNLVNLSNNPQKLDPPFILFPQTYEIDGKWLIHIQVPSSSQVHKTSGIVFNRSNDGDFRVTQPQQIAEIYNRKRMHYTEGIIYPGLRFEDFKVDLFPKVRNLIRSNNPNHPWLALTDQQMLEKAGLWKRDINSTQEGYTLAAALLLGKDEVIQQLLPFFKIDALVRIEDIYRYDDREYIQTNLIEAYEQLMTFVGKHLPDKFYMEGDQRVSLRNKIFREIAANLIVHREYMNAYPCTFIIYSDRVETENANNPHGEGPIDPEHFAPFPKNPTIIKFFMQLGRVDELGSGILNVNRFIKEYANGGSSQFIEGNVFKMIIPVAGEKIEGAIEGAIEGAIEGAIEGATKKVKDKLAILLKAIAENEGKKVPDYVVITKIPRSSIERYIKQLREANLIDFRDKATLIGGYYLTSKMKQKLKEKSLEHHHHHH	not soluble
MGSDKIHHHHHHMTSKNQSPLASDHPLAMPDTEISAREVFGIDIDMLVPAFSVGSEHVPDVDPAYRFDPDTTKAILAGFAFNRRVMVQGYHGTGKSTHIEQVAARLNWPCIRVNLDSHVSRIDLIGKDAIVVKDGKQITEFREGMLPWALQHPCALVFDEYDAGRPDVMFVIQRVLEVEGRLTLLDQNRVIRPHAAFRLFATANTVGLGDTTGLYHGTQQINQGQMDRWNIVATLNYLAHDDECSIVVAKLKDYDTPEGRDLVSKMVMLADLTRQGFMNGDISTVMSPRTVITWAENTRIFGDHSYGFRVTFLNKCDEVERPILAEYYQRCFGTDLPDGPARMLA	not soluble
MGYFSNAQRHAYESLLPRYGIPLTEEPVDLDSIFGRTAPGILEIGSGMGETTAEIARQHPEKDFIAIEVHAPGIGSLLGQIEKHRLTNLRIIPHDAKLVLQQMFTSESLDGIHIFFPDPWPKARHHKRRLIQPDFVSLLCDRLKPGGYLHIATDWEDYATHILHVLRSEERFVNTAVDYAARPAYRPLTKFEQRGMKLGHTIRDIIFTRTALEHHHHHH	soluble
MGEQQLDCALDLMRRLPPQHCDKNLTDLIDLCPHLVDDLLSTIDQPLKIAADRETGKQYLLCDYNRDGDSYRSPWSNTYDPPLEDGQLPSEKRRKMEIEANAAFESYRDLYFEGGVSSVYFWDLDNGGFAGIVLIKKEGDGAKNITGCWDSIHVIEITERARQAHYKLTSTIMLWLQTNKSSSGVMNLGGSLTRQHEMDAPINDQNTHLANMGRMIEDQESKMRLTINEIYFGKTKKVMSDLRSTEKQSELEKQDEIVRELNNAMANRGN	soluble
MSLAAHYDGLEKRTGAPYYGKKAEKVCNCAECLVFRRDVETGRLRLSNAYFCKVRLCSMCAWRRSLKIASHNKLIVEEANREYKPSWIFLTLTVRNVDGDDLKQTITDMMKAWNRLFGYKVVKTSVLGYFRALEITKNHEQNTYHPHFHVLIPVKRSYFTGKRYIKQAEWTSLWKRAMKLDYTPIVHVQRVKGKKGIDAEGIEKEVRKEMEEQKAILEISKYPVKDTDVIRGNEVTEENLDTVYYLDDALNARRLIGYGGILKEIHKELNLTDAEDGDLVRIEEDDDAVANETFEVMARWHVGIKNYIIQEGHHHHHH	soluble
MAHHHHHHMEDGVIISGDYIQMEKDKVKRINEHNFEQVHDVESDNLYRSKCSGILLKTPYYPYKYDIMNTSYKYMPKVGDLVIGIVKSKKLDYYQMDINCNCECIIHKIESFKYATKNSFPNLANGTLLYMIVEKINLDNNSVVASCINSSDVKSWINYENYLGELVDGYMFPVSISYAKSLIGDKCYLLDLIGADVSYEVAVGHNGR	not soluble
MAGDRKRGFIRPDEDYALIEPQRWGLPDYGDSKEKKAKQTAFNYDPSWVPNFDEPEEEQALELTEEQIELIKQGAYQEGLYQGQEAGFKQGYDKGKEEGLQAGHAEGLELGKAEGVSAGQEFIQQQVEVFMNLANQFAQPLELMNAQVEKQLVDMVLCLVKEVVHVEVQTNPQIILDTVKQSVEALPISGHPITLHLNPEDVAIIRSAYGEEDLDCRNWTLVSEPSLNRGDVQIEAGESSINYRMEERIKSVLHSFCGANRHQEGELEHHHHHH	soluble
MGSDKIHHHHHHMHEDHFDKFVQKNLDRNIPIVTTEEAGKSLKELGFMKRHPLKTWDTLIVERGNTLLRVTAMPGRHGPPIVAELLPEVMGSLLDFGIKNSPRSYRMYISGDTMVFDDIKEIPRRYPDVDLALLHLGGTRLLGLVTVTMDAKEGVKMMQLIVPRKAIPIHYNDYDVFKSPLSDFKKEMERAGLQDKIIYLEHGDTYEFDLEEK	not soluble
MGHHHHHHSHMSGTEEAILGGRDSHPAAGGGSVLCFGQCQYTAEEYQAIQKALRQRLGPEYISSRMAGGGQKVCYIEGHRVINLANEMFGYNGWAHSITQQNVGEYALQQWGLLHCPAPAESLLWVRR	soluble
MGSDKIHHHHHHMFEVFNYEDIICARGNREMPWKPSFQMNVYYYLIDGLLIDSGPYSLAKEAIEFFNAHIIEQVFLSHIHEDHAGMAYWLQEKMQIPIYLHEGSLEEARREPELAKYRLGIWGRRKAFNAEPINDTIKTGSYVFDVIDSPGHCPYHKVLHEKTKGWLFSGDLLNNLKPKSVMFDENTNDTILSIRKVLDLDFTTVFCAHTGIRKNAKNLFLKKLNYLLELQKDTQVLRNRGFSNTEIVEQLFPGPDPISSLSGGEFSSYYLVSTL	not soluble
MNVILFDGICNLCNGAVTFVVKRDRKGLFRFVSLQSETGKSLLKRYAVESTNKTLYYFRNNRCYSKSTAILYILKDLGGFWQCLYPLILIPAKLRDAIYLLVSKYRYRIFGKADSCIKPFGFSSEESKRSDLEHHHHHH	not soluble
MQNELQTALFQAFDTLNLQRVKTFSVPPVTLCGPGSVSSCGQQAQTRGLKHLFVMADSFLHQAGMTAGLTRSLTVKGIAMTLWPCPVGEPCITDVCAAVAQLRESGCDGVIAFGGGSVLDAAKAVTLLVTNPDSTLAEMSETSVLQPRLPLIAIPTTAGTGSETTNVTVIIDAVSGRKQVLAHASLMPDVAILDAALTEGVPSHVTAMTGIDALTHAIEAYSALNATPFTDSLAIGAIAMIGKSLPKAVGYGHDLAARESMLLASCMAGMAFSSAGLGLCHAMAHQPGAALHIPHGLANAMLLPTVMEFNRMVCRERFSQIGRALRTKKSDDRDAINAVSELIAEVGIGKRLGDVGATSAHYGAWAQAALEDICLRSNPRTASLEQIVGLYAAAQ	soluble
MGSDKIHHHHHHMLIIKRSVAIIAILFSPLSTASNLTSQLHNFFSAQLAGVSDEVRVSIRTAPNLLPPCEQPLLSMSNNSRLWGNVNVLARCGNDKRYLQVNVQATGNYVVAAMPIARGGKLEAGNVKLKRGRLDTLPPRTVLDINQLVDAISLRDLSPDQPIQLTQFRQAWRVKAGQRVNVIASGDGFSANAEGQALNNAAVAQNARVRMVSGQVVSGVVDADGNILINL	not soluble
